Laboratory results reported in patent US8722637B2, “Methods and compositions of IG20 and DENN-SV splice variants” (The Board of Trustees of the University of Illinois, priority 2003, dated 2014).

Legend:
Format in all cases: cell-based, human
[1] = test system: HeLa IG20 and control cells; experiment: Inhibition of TRAIL induced apoptosis by caspase inhibitors and DN-FADD (active caspase-3); conditions: control and HeLa IG20 cells transfected with inhibitor; TRAIL 100 ng/mL 5 hours
Protocol: FIG. 16. IG 20 enhanced apoptosis can be inhibited by caspase inhibitors and DN FADD HeLaIG20 and control cells (1×10^5 per well in a 6 well plate) were co-transfected with GFP-F vector along with either Crm A, p35 or DN-FADD in the ratio of 1:10. Twenty-four hours post transfection, TRAIL was added at a concentration of 100 ng/mL for 5 hours and both treated and untreated cells were stained with PE-conjugated anti-caspase3 antibodies and subjected to FACS analyses. The data were obtained from only GFP positive cells and represent 2 independent experiments carried out in duplicate.
Transfection with dominant negative FADD, CrmA and p35 constructs—Control vector and IG20 stably transfected HeLa cells were plated at 5×10^5 overnight and the dominant negative FADD, Crm A and p35 constructs were co-transfected (2 μg each) with farnesylated EGFP at a ratio of 1:5. Equal numbers of wells were co-transfected with an appropriate control vector along with EGFP-F at the same ratio. The transfected cells were left untreated or treated with the TRAIL, or with TNF-α and cycloheximide, for 5 hours and cells were collected and stained for active caspase-3 (anti caspase-3 antibody) and subjected to FACS analysis to detect active caspase-3 staining in GFP-positive cells.

HeLa IG20 cells = experiment: TRAIL or TNF-α/cycloheximide induced apoptosis in HeLa IG20 cells (caspase activation, TMRE, Hoechst); conditions: 5 hours; TRAIL 100 ng/mL, or 10 ng/mL TNF-α and 10 μg/mL cycloheximide
Protocol: FIG. 13: IG20 transfected HeLa cells show increased apoptosis upon TRAIL treatment. HeLa-IG20 and control cells were treated for 5 hours with TRAIL at 100 ng/mL or with 10 ng/mL of TNF-α and 10 μg/mL of Cycloheximide and analyzed for apoptosis. A) Activation of caspases—cells were incubated for 10 minutes with FITC labeled general caspase inhibitor VAD FMK (Val-Ala-Asp-flouromethyl ketone) and analyzed by FACS. Numbers in the histogram indicate percentage of FITC positive cells. B) Mitochondrial Depolarization—Loss of the dye TMRE is indicative of mitochondrial depolarization and the numbers shown in the FACS histograms represent percentage of TMRE negative cells. All the above experiments were done in triplicates and results shown are representative histograms. […] D) Percentage of cells with condensed chromatin was calculated by counting 3 fields containing at least 200 cells each and error bars indicate mean±S.D.
Mitochondrial depolarization and chromatin condensation—2×10^5 HeLa IG20 and Vector control cells were plated into a 12-well culture dish and allowed to grow for 48 hours. […] Cells were assessed for loss of mitochondrial membrane potential by staining with tetramethylrhodamine ethyl ester (100 nm, Molecular Probes, Eugene, Oreg.) for 10 minutes, washed once with ice-cold PBS, collected and subjected to FACS analysis. […]

PA-1 cells = experiment: TRAIL-induced apoptosis in PA-1 cells (active caspase 3); conditions: TRAIL three hours
Protocol: FIG. 12: Effects of IG20 on PA-1 Cell Phenotypes. (A) Growth Rates. PA-1 and PA-1-IG20 cells were plated as described in Materials and Methods. Cells were then harvested and counted on the indicated days. Data are presented as mean+standard deviation of three plates for each sample. P values were <0.05 for all test groups. (B) TNFα-Induced Apoptosis. Cells were either untreated or treated with TNFα and cyclohexamide (CHX) for three hours, as described in Materials and Methods and then tested for percentages of cells with active caspase 3. (C) TRAIL-Induced Apoptosis. Cells were either untreated or treated with TRAIL for three hours and then tested for percentages of cells with active caspase 3, in the presence or absence of Z-VAD, an inhibitor of caspase activation. (D) Response to […] and TRAIL Treatment. PA-1-IG20 cells exposed to 6 and 12Gy of […] were plated as described in Materials and Methods. Twenty-four hours later, cells were either untreated or treated with TRAIL for 3 hours. All cells were then harvested and tested for levels of active caspase 3. (E) TNFα- and TRAIL-Induced NFκB Activation. Cells transfected with the NFκB-luciferase reporter were serum-deprived and then subjected to mock, TNFα, TRAIL or zVAD treatments for 5 hours. Cells were then lysed and tested for levels of luciferase activity. […]

caspase-3 = experiment: Caspase-3 activation in HeLa IG20 cells; conditions: 5 hours; TRAIL, or TNF-α and cycloheximide
Protocol: FIG. 15: IG20 Cells show increased specific activation of caspases upon TRAIL treatment A) Initiator caspases—Hela IG20 cells and control cells treated with TRAIL for 1H, were stained, with flourochrome-conjugated peptide inhibitors of specific active caspases as indicated, fixed and analyzed by FACS. B) Caspase-8 cleavage—IG20 HeLa cells and control cells were treated with TRAIL for either 1H or 3H, lysed and immunoblotted for the 10 kDa cleaved product of active caspase-8 using the 6B6 monoclonal antibody. […]
Caspase activation—To assess the general activation of caspases, cells were stained with FITC tagged caspase inhibitor Val-Ala-Asp-flouromethyl ketone Promega, Madison, Wis.) for 10 minutes at 37° C., washed and analyzed by FACS for percentage of FITC positive cells. The initiator caspases were analyzed by using carboxyflourescein labeled peptide flouromethlyketone inhibitors (FAM-peptide-FMK) directed against active caspase-8, 9 and 10 (APOLOGIX caspase detection kit, Cell Tech Inc., Minneapolis, Minn.). […] Cells were collected, washed once, resuspended in Perm/wash buffer and analyzed by FACS for PE positive population. […]

B1: p35: baculovirus derived general caspase inhibitor (protein, UniProt P08160 1-299, looked up)
Early 35 kDa protein: MCVIFPVEIDVSQTIIRDCQVDKQTRELVYINKIMNTQLTKPVLMMFNISGPIRSVTRKNNNLRDRIKSKVDEQFDQLERDYSDQMDGFHDSIKYFKDEHYSVSCQNGSVLKSKFAKILKSHDYTDKKSIEAYEKYCLPKLVDERNDYYVAVCVLKPGFENGSNQVLSFEYNPIGNKVIVPFAHEINDTGLYEYDVVAYVDSVQFDGEQFEEFVQSLILPSSFKNSEKVLYYNEASKNKSMIYKALEFTTESSWGKSEKYNWKIFCNGFIYDKKSKVLYVKLHNVTSALNKNVILNTIK
For B1, the “Effect on TRAIL induced apoptosis (active caspase-3)” value [1] was “abrogated TRAIL induced apoptosis”.

B2: TRAIL: recombinant human TRAIL, TNF Related Apoptosis Inducing Ligand, purchased from Peprotech (protein, UniProt P50591 1-281, looked up)
Tumor necrosis factor ligand …: MAMMEVQGGPSLGQTCVLIVIFTVLLQSLCVAVTYVYFTNELKQMQDKYSKSGIACFLKEDDSYWDPNDEESMNSPCWQVKWQLRQLVRKMILRTSEETISTVQEKQQNISPLVRERGPQRVAAHITGTRGRSNTLSSPNSKNEKALGRKINSWESSRSGHSFLSNLHLRNGELVIHEKGFYYIYSQTYFRFQEEIKENTKNDKQMVQYIYKYTSYPDPILLMKSARNSCWSKDAEYGLYSIYQGGIFELKENDRIFVSVTNEHLIDMDHEASFFGAFLVG
In the case of B2, the “Increase in cells undergoing apoptosis, HeLa IG20 versus control cells” value (HeLa IG20 cells) is reported as 3-3.5 fold, the TRAIL-induced apoptosis (PA-1 cells; PA-1-IG20 cells) is reported as “highly susceptible to TRAIL-induced apoptosis” and the TRAIL-induced apoptosis (PA-1 cells; PA-1 cells) is reported as “almost completely resistant”. The “Relative increase in caspase-3 activation, HeLa IG20 relative to control cells” value (caspase-3) was “five fold increase”.
